Tests used:
[1] = molecular target: T1, HLA-A*02:01 class I complex (conditional p*HLA*02:01, biotinylated heavy chain with beta2-microglobulin) (human, biotinylated heavy chain); test: UV peptide exchange, HLA class I ELISA; high end of the group, member by Table 4
T1 construct: UV-labile peptide p* is cleaved and exchanged for the test peptide; also called HLA 2.1
Text: (§1) The HLA class I ELISA is an enzyme immunoassay based on the detection of beta2-microglobulin (B2M) of (peptide-stabilized) HLA class I complexes. To this end streptavidin is bound onto polystyrene microtiter wells. After washing and blocking, HLA complex present in exchange reaction mixtures or ELISA controls is captured by the streptavidin on the microtiter plate via its biotinylated heavy chain. Non-bound material is removed by washing. Subsequently, horseradish peroxidase (HRP)-conjugated antibody to human B2M is added. […] In the latter case B2M is removed during the washing step. After removal of non-bound HRP conjugate by washing, a substrate solution is added to the wells. A colored product is formed in proportion to the amount of intact HLA complex present in the samples. After the reaction has been terminated by the addition of a stop solution, absorbance is measured in a microtiter plate reader. The absorbance is normalized to the absorbance of an exchange control peptide (represents 100%). Also, suboptimal HLA binding of peptides with a moderate to low affinity for HLA class I molecules can be detected by this ELISA technique
(§2) Coating wells of two NUNC MaxiSorp™ 96-well ELISA plates: only the contents of one coating buffer capsule were dissolved in 100 mL of distilled water (0.05 M carbonate-bicarbonate buffer, pH 9.6 at 25° C.). 46 μL of Streptavidin stock solution were added to 23 mL coating buffer. 100 μL of the Streptavidin stock solution were added to all wells. Each microtiter plate was covered with an adhesive seal and incubated overnight at room temperature (18-25° C.).

[2] = molecular target: T1, HLA-A*02:01 class I complex …; test: UV peptide exchange, HLA class I ELISA, % of Pos peptide;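 as to Average %: Streptavidin-captured HLA complexes after exchange detected via HRP anti-human B2M antibody, absorbance read, colour scales with intact complex, normalized to exchange control peptide as 100%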;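 as to Exch I (%): Streptavidin-captured HLA complexes after exchange detected via HRP anti-human B2M antibody, absorbance read, colour scales with intact complex, normalized to exchange control peptide as 100%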;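 as to Exch II (%): Streptavidin-captured HLA complexes after exchange detected via HRP anti-human B2M antibody, absorbance read, colour scales with intact complex, normalized to exchange control peptide as 100%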
[3] = molecular target: T1, HLA-A*02:01 class I complex …; test: as above; remark: listed apart in the source
[4] = molecular target: T1, HLA-A*02:01 class I complex …; test: as above; remark: listed apart in the source
[5] = molecular target: T1, HLA-A*02:01 class I complex …; test: UV peptide exchange, HLA class I ELISA; low end of the group, member by Table 4
Text: as §1, §2

Row | Binder | average relative binding (%) [1] [%] | Average % [2] [%] | Exch I (%) [2] [%] | Exch II (%) [2] [%] | average relative binding (%) [3] [%] | Mutant Binding [4] [%] | average relative binding (%) [5] [%]
1 | YMDSGIHFV (also called M033) [CTNNB1_S37F6 mimic peptide YMDSGIHFV] | 90 to 100 | 99.8 | 104 | 95.5 |  |  | 
2 | YLDSGIHFV (also called M032) [CTNNB1_S37F5 mimic peptide YLDSGIHFV] |  | 104 | 99.3 | 109 | > 100 |  | 
3 | YMDSGIHFL (also called M035) [CTNNB1.S37F10 mimic peptide YMDSGIHFL] |  | 105 | 102 | 108 | > 100 |  | 
4 | YLDSGIHFG (also called M030) [CTNNB1.S37F mutant peptide YLDSGIHFG] |  | 53.4 | 53.7 | 53.2 |  | 53.7 | 
5 | YMDSGIHFI (also called M031) [CTNNB1_S37F14 mimic peptide YMDSGIHFI] |  | 107 | 97.6 | 116 | > 100 |  | 
6 | ALNNMFCQV (also called M161) [TP53_K132N5 mimic peptide ALNNMFCQV] | 61 to 69 | 69.3 | 69.7 | 68.8 |  |  | 
7 | QLWVDSTPL (also called M180) [TP53.P152L mutant peptide QLWVDSTPL] |  | 86.2 | 84.3 | 88.1 |  | 86.2 | 
8 | CYLYYYSYLL (also called M101) [PTEN R173C2 mimic peptide CYLYYYSYLL] |  | 18.3 | 16.1 | 20.6 |  |  | 18 to 28
9 | CYMYYYSYLI (also called M106) [PTEN.R173C11 mimic peptide CYMYYYSYLI] |  | 4.9 | 4.9 | 4.8 | < 15 |  | 
10 | CYVYYYSYLL (also called M100) [PTEN.R173C mutant peptide CYVYYYSYLL] | 33 to 38 | 38.4 | 38.2 | 38.5 |  |  | 
11 | YQGSYGFLL (also called M200) [TP53.R110L mutant peptide YQGSYGFLL] |  | 11.9 | 14.3 | 9.6 | < 15 |  | 
12 | YQGSYGFLV (also called M202) [TP53_R110L4 mimic peptide YQGSYGFLV] |  | 49.6 | 53.6 | 45.6 |  |  | 50 to 58
13 | YQGSYGFLI (also called M201) [TP53_R110L3 mimic peptide YQGSYGFLI] |  | 8.9 | 7.1 | 10.8 | < 15 |  | 
14 | GLKDLLNPI (also called M080) [PIK3CA.E453K mutant peptide GLKDLLNPI] | 70 to 79 | 79.4 | 73.8 | 84.9 |  |  | 
15 | ILNREIDFA (also called M090) [PIK3CA.G118D mutant peptide ILNREIDFA] |  | 50.4 | 53.1 | 47.8 |  | 50.4 | 
16 | RLIHRDLAA (also called M240) [ERBB2.V842I mutant peptide RLIHRDLAA] |  | 7.2 | 6.8 | 7.7 | < 15 |  | 
17 | VLSDAISAV (also called M121; SOX17_S40312) [SOX17_S403I2 mimic peptide VLSDAISAV] |  | 90.1 | 89.3 | 90.9 |  |  | 90 to 100

Row | Binder | average relative binding (%) [1] [%] | Average % [2] [%] | Exch I (%) [2] [%] | Exch II (%) [2] [%] | average relative binding (%) [3] [%] | Mutant Binding [4] [%] | average relative binding (%) [5] [%]
18 | KLYPVQLWV (also called M131) [TP53_C141Y2 mimic peptide KLYPVQLWV] |  | 81.9 | 84.1 | 79.8 |  |  | 80 to 88
19 | KTYPVQLWV (also called M130) [TP53.C141Y mutant peptide KTYPVQLWV] |  | 68.9 | 66.6 | 71.2 |  | 68.9 | 
20 | KMYPVQLWL (also called M133) [TP53_C141Y8 mimic peptide KMYPVQLWL] | 102 to 113 | 112 | 122 | 103 | > 100 |  | 
21 | SMTCTYFPV (also called M213) [TP53_S127F7 mimic peptide SMTCTYFPV] | 80 to 88 | 88.4 | 83.4 | 93.3 |  |  | 
22 | SMTCTYFPI (also called M215) [TP53_S127F12 mimic peptide SMTCTYFPI] | 18 to 28 | 27.5 | 32.2 | 22.7 |  |  | 
23 | SVTCTYFPA (also called M210) [TP53.S127F mutant peptide SVTCTYFPA] |  | 8.6 | 7.7 | 9.4 | < 15 |  | 
24 | YLDCGIHSG (also called M020) [CTNNB1.S33C mutant peptide YLDCGIHSG] |  | 33.9 | 34.8 | 33 |  | 34.8 | 
25 | YLDCGIHSV (also called M022) [CTNNB1_S33C5 mimic peptide YLDCGIHSV] |  | 102 | 100 | 104 | > 100 |  | 102 to 113
26 | GLAPPQLLI (also called M140) [TP53.H193L mutant peptide GLAPPQLLI] |  | 8.2 | 9.2 | 7.2 | < 15 |  | 
27 | GLAPPQYLI (also called M150) [TP53.H193Y mutant peptide GLAPPQYLI] |  | 13.3 | 13.5 | 13.1 | < 15 |  | 
28 | GMAPPQLLV (also called M142) [TP53_H193L6 mimic peptide GMAPPQLLV] |  | 13.9 | 13.9 | 13.9 | < 15 |  | 
29 | NMDEYVHNT (also called M110) [SF3B1.R625H mutant peptide NMDEYVHNT] |  | 8.3 | 9.2 | 7.3 | < 15 |  | 
30 | NMDEYVHNL (also called M113) [SF3B1_R625H9 mimic peptide NMDEYVHNL] | 50 to 58 | 58.1 | 62 | 54.3 |  |  | 
31 | VLPCEPPEV (also called M231) [TP53_Y220C2 mimic peptide VLPCEPPEV] |  | 70 | 66.3 | 73.7 |  |  | 70 to 79
32 | VMPCEPPEV (also called M232) [TP53_Y220C3 mimic peptide VMPCEPPEV] |  | 60.9 | 62.9 | 58.9 |  |  | 61 to 69
33 | LLVVGAAGV (also called M051) [KRAS_G12A2 mimic peptide LLVVGAAGV] |  | 33.3 | 34.1 | 32.5 |  |  | 33 to 38
34 | LMVVGACGV (also called M062) [KRAS_G12C3 mimic peptide LMVVGACGV] | 41 to 49 | 48.7 | 47.1 | 50.4 |  |  | 

Source: patent US20220194999A1 (Janssen / Centocor, published 2022)
